This passage reports EC50 results from patent publication WO2021223719A1 (dated 2021).

Residue numbers refer to the chain shown, from its start.

The assay has as its target FMC63-scFv-mFc protein. In words: ELISA, plate coated with FMC63-scFv-mFc, biotin-labelled FMC63-scFv-mFc for detection. On the technique in general: ELISA stands for enzyme-linked immunosorbent assay.

B1: mAb023 (75H6C7) (antibody, V domains shown)
VH: QAQLQQPGAELVMPGASVKLSCKASGYTFTNYWMNWMKQRPGQGLEWIGEIDPSDSDKNYNQKFKDKATLTVDKSSSTAYMQLSSLTSEDSAVYYCAGGYYGMDFWGQGTSVTVSS
VL: DVVMTQTPLSLPVSLGDQASISCRSSQSLENSKGNTYLNWYVQKPGQSPQLLIYRVSTRFSGVLDRFSGSGSGTDFTLKISRVEAEDLGVYFCLQLTHVPFTFGSGTKLEIK
Usually EC50 stands for the concentration at which the effect is half-maximal. Higher therefore signals lower potency in that assay. For the molecule B1, the EC50 came out at 0.0512 µg/mL.

B2: mAb06 (26E7D2) (antibody, human IgG1, kappa, V domains shown)
VH: QVQLQQPGAELVKPGASVKLSCKVSGYTFTSYWIHWVKQRPGRGLEWIGRIDPISGGANYNEKFKTKATLTVDKPSSTAYMQLSSLTSEDSAVYYCARWGGGDYWGHGTTLTVSS
VL: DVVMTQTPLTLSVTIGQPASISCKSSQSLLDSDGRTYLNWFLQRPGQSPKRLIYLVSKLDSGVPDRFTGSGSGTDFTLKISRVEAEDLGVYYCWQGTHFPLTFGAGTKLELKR
notes: Tested as the murine hybridoma antibody
The molecule B2 had an EC50 of 0.0299 µg/mL.

B3: mAb020 (52H8C4) (antibody, human IgG1, kappa, V domains shown)
VH: EVMLVESGGGLVKPGGSLKLSCAASGFTFSSYTMSWVRQTPEKRLEWVATITGGGGDTFYPDSVKGRFTISRDNAKNTLYLQVSSLRSEDTAVYHCARQYYDYDGGAMDYWGQGTSVTVSS
VL: DIVLTQSPASLAVSLGQRAIISCKASQSVSFAGTGLMHWYQQKPGQQPKLLIYRASNLEAGVPTRFSGSGSRTDFTLNIHPVEEDDAATYYCQQSREYPRTFGGGTKLEIKR
notes: as for B2
B3 displayed an EC50 of 0.113 µg/mL.

B4: mAb02 (8B3H4) (antibody, human IgG1, kappa, V domains shown)
VH: QVQVQQPGAELVKPGASVRLSCKASGYTFTTYWMHWVKQRPGQGLEWIGMIHPNSDSINYNEKFKSKATLIVDKSSSTFYMQLSSLTSEDSAVYYCARTDGYYAPYFAMDYWGQGTSVTVSS
VL: DIQMTQTTSSLSASLGDRVTISCRASQDIRDNLNWYQQKPDGTVKLLIYYKSRSHSGVPSRFSGSGSGTDYSLTISNLEQEDIATYFCQQGNTLPFTFGSGTKLEIKR
notes: as for B2
On to B4, for which the EC50 came to 0.023 µg/mL.

B5: mAb07 (27C5E11) (antibody, V domains shown)
VH: B4 VH with V4L, R19K, T31S, S55G, I58T, S66T, I71T, F79A
VL: DIQMTQSTSSLSASLGDRVTISCRASQDINNYLNWYQQKPDGTVKLLIYYTSRLHLGVPSRFSGSGSGTDYSLTISNLEQEDIATYFCQQGNTLPFTVGSGTKLEIK
In the case of B5, the midpoint of the response, the EC50, lay at 0.099 µg/mL.
